Measured values as given in patent US9175045B2, “Peptidomimetic macrocycles” (Aileron Therapeutics, Inc., priority 2008, dated 2015).
Numbered stars: 1 amine (or outer) side, 2 acyl side, 3 side chain; on linkers, the order of the positions; unused ones are H or OH. Bridge positions count the residues as written; N and C are the ends. Square brackets hold non-standard residues; d marks the D form. Peptide text beside a SMILES is read from it. * marks the point of attachment. ξ: configuration not given here. ξαMeNle(6-ylidene) = CC(CCCC=[*:3])(N[*:1])C(=O)[*:2]; S5 = C=CCCC[C@](C)(N)C(=O)O; Nle = CCCC[C@H](N)C(=O)O; Aib = CC(C)(N)C(=O)O; Propionyl = CCC(=O)*

Columns and labels:
Jurkat cell line = assay type: cell-based; settings: 24 h
Experimental: Jurkat cell line (Clone E6-1, ATCC catalog #TIB-152) is grown in specific serum-supplemented media (RPMI-1640, Invitrogen catalog #22400) as recommended by ATCC. A day prior to the initiation of the study, cells are split at optimal cell density (2×10^5-5×10^5 cells/ml) to assure actively dividing cells. The next day, cells are washed twice in serum-free Opti-MEM media (Invitrogen, Catalog #51985) and cells are then plated at optimal cell density (10,000 cells/well) in 50 μl Opti-MEM media or Opti-MEM supplemented with 2% or 10% human serum (Bioreclamation, catalog #HMSRM) in 96-well white tissue culture plate (Nunc, catalog #136102).
For serum free experiment, crosslinked polypeptides are diluted from 2 mM stocks (100% DMSO) in sterile water to prepare 400 μM working solutions. The crosslinked polypeptides and controls are diluted 10-fold first and then serially two-fold diluted in Opti-MEM in dosing plates to provide concentrations of between 1.2 and 40 μM. 50 μl of each dilution is then added to the appropriate wells of the test plate to achieve final concentrations of the polypeptides equal to between 0.6 to 20 μM. For studies using Opti-MEM supplemented with human serum (Bioreclamation, catalog #HMSRM), crosslinked polypeptides are diluted from 10 mM stocks (100% DMSO) in sterile water to prepare 2 mM working solutions. The crosslinked polypeptides and controls are diluted 10-fold first and then serially two-fold diluted in Opti-MEM in the presence of 2% or 10% of human serum to provide concentrations of the polypeptides equal to between 6.25 to 200 μM in dosing plates. 50 μl of each dilution is then added to the appropriate wells of the test plate to achieve final concentrations of the polypeptides equal to between 3.125 to 100 μM. Controls included wells without polypeptides containing the same concentration of DMSO as the wells containing the macrocycles, wells containing 0.1% Triton X-100 and wells containing no cells. Plates are incubated for 24 hours at 37° C. in humidified 5% CO2 atmosphere.
At the end of the incubation period, CellTiter-Glo assay is performed according to manufacturer's instructions (Promega, catalog #G7573) and luminescence is measured using Synergy HT Plate reader (BioTek). Luminescence correlates with viability. A reduction in viability reflects the ability of the test compounds to induce programmed cell death via BAX and BAK.

human serum proteins = assay: Apparent affinity to human serum proteins (Kd*) by EC50 shift analysis; assay type: in vitro ADME; settings: nonlinear regression of EC50 shift with serum, n = 1, P = 700 μM for 100% serum
Source text: The measurement of apparent Kd values for serum protein by EC50 shift analysis provides a simple and rapid means of quantifying the propensity of experimental compounds to bind HSA and other serum proteins. A linear relationship exists between the apparent EC50 in the presence of serum protein (EC′50) and the amount of serum protein added to an in vitro assay. This relationship is defined by the binding affinity of the compound for serum proteins, expressed as Kd*. This term is an experimentally determined, apparent dissociation constant that may result from the cumulative effects of multiple, experimentally indistinguishable, binding events. The form of this relationship is presented here in Eq. 0.3, and its derivation can be found in Copeland et al, Biorg. Med. Chem. Lett. 2004, 14:2309-2312. [formula] A significant proportion of serum protein binding can be ascribed to drug interactions with HSA, due to the very high concentration of this protein in serum (35-50 g/L or 530-758 μM). To calculate the Kd value for these compounds we have assumed that the shift in EC50 upon protein addition can be ascribed fully to the HSA present in the added serum, where P is 700 μM for 100% serum, P is 70 μM for 10% serum, etc. We further made the simplifying assumption that all of the compounds bind HSA with a 1:1 stoichiometry, so that the term n in Eq. (0.3) is fixed at unity. With these parameters in place we calculated the Kd* value for each stapled peptide from the changes in EC50 values with increasing serum (and serum protein) concentrations by nonlinear regression analysis of Eq. 0.3 using Mathematica 4.1 (Wolfram Research, Inc., www.wolfram.com). EC′50 values in whole blood are estimated by setting P in Eq. 0.3 to 700 μM [HSA].

[1] = Estimated free fraction in blood, calculated from Kd* with [HSA]total 700 μM; assay type: in vitro ADME; settings: human; [HSA]total set at 700 μM; read-out: Free Fraction est. in blood
Experimental: The free fraction in blood is estimated per the following equation, as derived by Trainor, Expert Opin. Drug Disc., 2007, 2(1):51-64, where [HSA]total is set at 700 μM. [formula]

[2] = target: T1, human serum proteins (binding ascribed fully to human serum albumin, HSA) (human, UniProt P02768 25-609); assay: cell-based or functional assay
[3] = target: T1, human serum proteins (binding ascribed …); assay: apparent Kd* by EC50 shift analysis: Jurkat viability EC50 at 0, 2 and 10% human serum, fit assuming 1:1 binding to HSA

T1 sequence (P02768 25-609 limits assumed): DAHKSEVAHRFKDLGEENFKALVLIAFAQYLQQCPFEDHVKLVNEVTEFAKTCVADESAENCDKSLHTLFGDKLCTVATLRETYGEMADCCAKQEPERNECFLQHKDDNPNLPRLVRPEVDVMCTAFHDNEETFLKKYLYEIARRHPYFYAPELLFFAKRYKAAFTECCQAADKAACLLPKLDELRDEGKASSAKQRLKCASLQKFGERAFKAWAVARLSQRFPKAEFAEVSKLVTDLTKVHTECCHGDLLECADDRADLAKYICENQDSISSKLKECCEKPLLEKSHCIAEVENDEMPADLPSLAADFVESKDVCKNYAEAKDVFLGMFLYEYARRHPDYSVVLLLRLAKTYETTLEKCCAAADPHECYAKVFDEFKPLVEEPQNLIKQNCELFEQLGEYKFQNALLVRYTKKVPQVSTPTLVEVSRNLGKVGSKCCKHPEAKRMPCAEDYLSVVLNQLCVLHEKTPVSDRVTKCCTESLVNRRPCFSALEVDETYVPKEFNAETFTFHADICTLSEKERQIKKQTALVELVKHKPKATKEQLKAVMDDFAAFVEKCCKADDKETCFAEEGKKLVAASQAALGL

EC50 (Jurkat cell line) [µM]	Kd (human serum proteins) [µM]	fraction unbound [1]	Molecule	2% serum EC50 (Jurkat cell viability, CellTiter-Glo) [2] [µM]	10% serum EC50 (Jurkat cell viability, CellTiter-Glo) [2] [µM]	Kd [3] [µM]
1.3	2.3	0.0038	CC[C@H](C)[C@H](NC(C)=O)C(=O)N[C@@H](Cc1c[nH]c2ccccc12)C(=O)N[C@H](C(=O)N[C@@H](C)C(=O)N[C@@H](CCC(N)=O)C(=O)N[C@@H](C)C(=O)N[C@@H](CC(C)C)C(=O)N[C@@H](CCCNC(=N)N)C(=O)NC1(C)CCCC=CCCCC(C)(C(=O)N[C@@H](Cc2ccccc2)C(=O)N[C@@H](CC(N)=O)C(=O)N[C@@H](C)C(=O)N[C@@H](Cc2ccc(O)cc2)C(=O)N[C@@H](Cc2ccc(O)cc2)C(=O)N[C@@H](C)C(=O)N[C@@H](CCCNC(=N)N)C(=O)N[C@@H](CCCNC(=N)N)C(N)=O)NC(=O)[C@H](CC(=O)O)NC(=O)CNC(=O)[C@H]([C@@H](C)CC)NC1=O)[C@@H](C)CC (stereo partly drawn) [Compound 12, Ac-IWIAQALR$IGD$FNAYYARR-NH2]			
2.4	0.6	0.001	CC[C@H](C)[C@H](NC(=O)[C@H](CCCNC(=N)N)NC(=O)[C@H](CCCNC(=N)N)NC(=O)[C@H](CCCNC(=N)N)NC(=O)[C@H](CC(C)C)NC(=O)[C@H](C)NC(C)=O)C(=O)NC1(C)CCCC=CCCCC(C)(C(=O)N[C@@H](Cc2c[nH]cn2)C(=O)N[C@@H](Cc2c[nH]cn2)C(=O)N[C@@H](CO)C(=O)N[C@H](C(N)=O)[C@@H](C)O)NC(=O)[C@H](C)NC(=O)[C@H](CS)NC(=O)[C@H](CC(C)C)NC1=O (stereo partly drawn) [Compound 19, Ac- ALRRRI$LCA$HHST-NH2] (Ac-ALRRRI[ξαMeNle(6-ylidene)]LCA[ξαMeNle(6-ylidene)]HHST-NH2; staple 7-11)			
1.2	1.1	0.0018	CC[C@H](C)[C@H](NC(C)=O)C(=O)N[C@@H](Cc1c[nH]c2ccccc12)C(=O)N[C@H](C(=O)N[C@@H](C)C(=O)N[C@@H](CCC(N)=O)C(=O)N[C@@H](CCC(N)=O)C(=O)N[C@@H](CC(C)C)C(=O)N[C@@H](CCCNC(=N)N)C(=O)NC1(C)CCCC=CCCCC(C)(C(=O)N[C@@H](Cc2ccccc2)C(=O)N[C@@H](CC(N)=O)C(=O)N[C@@H](C)C(=O)N[C@@H](Cc2ccc(O)cc2)C(=O)N[C@@H](Cc2ccc(O)cc2)C(=O)N[C@@H](C)C(=O)N[C@@H](CCCNC(=N)N)C(=O)N[C@@H](CCCNC(=N)N)C(N)=O)NC(=O)[C@H](CC(=O)O)NC(=O)CNC(=O)[C@H]([C@@H](C)CC)NC1=O)[C@@H](C)CC (stereo partly drawn) [Compound 11, Ac-IWIAQQLR$IGD$FNAYYARR-NH2]			
1.1	2.9	0.0048	CCC(=O)N[C@@H](CCCNC(=N)N)C(=O)N[C@@H](CC(N)=O)C(=O)N[C@H](C(=O)NC(C)(C)C(=O)N[C@@H](CCCNC(=N)N)C(=O)N[C@@H](Cc1c[nH]cn1)C(=O)N[C@@H](CC(C)C)C(=O)NC(C)(C)C(=O)NC1(C)CCCC=CCCCC(C)(C(=O)N[C@@H](C)C(=O)N[C@@H](C)C(=O)N[C@@H](CCCNC(=N)N)C(=O)N[C@@H](CO)C(=O)N[C@H](C(N)=O)[C@@H](C)CC)NC(=O)[C@H](CC(=O)O)NC(=O)C(C)(C)NC(=O)[C@H](C(C)C)NC1=O)[C@@H](C)CC (stereo partly drawn) [Compound 9, Pr-RNIAibRHLAib$VAibD$AARSI-NH2] (Propionyl-RNI[Aib]RHL[Aib][ξαMeNle(6-ylidene)]V[Aib]D[ξαMeNle(6-ylidene)]AARSI-NH2; staple 9-13)			
			Ac-ALRRRI[S5]LCA[S5]HHST-NH2 (staple 7-11, also called hMAML) [Compound 19 (crosslinked polypeptide derived from human MAML peptide sequence)]	14.7	57.5	0.6
			IWIAQALRXIGDXFNAYYARR (N-terminal acetyl (Ac); C-terminal amide (NH2); $ at 9 and 13 (alpha-methyl amino acids joined by an all-carbon eight-carbon crosslinker with a double bond)) [Compound 12 (crosslinked polypeptide derived from human BIM BH3)]	8.6	26.5	2.3
			Ac-RWIAQQLR[S5]IGD[S5]FNAYYARR-NH2 (staple 9-13) [Compound 13 (crosslinked polypeptide derived from human BIM BH3)]	5.4	21.5	3.8
			Ac-RWIAQALR[S5]IGD[S5]FNAFYARR-NH2 (staple 9-13) [Compound 14 (crosslinked polypeptide derived from human BIM BH3)]	2.8	10.8	2.3
			Ac-RWIAQALR[S5]IGN[S5]FNAYYARR-NH2 (staple 9-13) [Compound 15 (crosslinked polypeptide derived from human BIM BH3)]	2.6	11.5	5.1
			Ac-IWIAQQLR[S5]IGD[S5]FNAYYARR-NH2 (staple 9-13) [Compound 11 (crosslinked polypeptide derived from human BIM BH3)]	7.9	37.6	1.1
			Ac-IWIAQALR[S5]IGN[S5]FNAYYARR-NH2 (staple 9-13) [Compound 16 (crosslinked polypeptide derived from human BIM BH3)]	2.3	9.3	3.5
			Ac-ERLRRRI[S5]LCR[S5]HHST-NH2 (staple 8-12, also called hMAML) [Compound 17 (crosslinked polypeptide derived from human MAML peptide sequence)]	55.1	> 100	< 0.1
			Ac-ERLRRRI[S5]LAR[S5]HHST-NH2 (staple 8-12, also called hMAML) [Compound 18 (crosslinked polypeptide derived from human MAML peptide sequence)]	> 100	> 100	< 0.1
			Ac-DAARNIARHLA[S5]V[Aib]D[S5][Nle]ARSI-NH2 (staple 12-16) [Compound 2 (crosslinked polypeptide derived from human BID BH3)]	20.5	97.1	< 0.1
			Ac-DIARNIARHLA[S5]V[Aib]D[S5][Nle]ARSI-NH2 (staple 12-16) [Compound 3 (crosslinked polypeptide derived from human BID BH3)]	14.9	88.9	< 0.1
			Ac-DAIRNIARHLA[S5]V[Aib]D[S5][Nle]ARSI-NH2 (staple 12-16) [Compound 4 (crosslinked polypeptide derived from human BID BH3)]	11.3	73.1	< 0.1
			Propionyl-RNI[Aib]RHL[Aib][S5]V[Aib]D[S5]AARSI-NH2 (staple 9-13) [Compound 9 (crosslinked polypeptide derived from human BID BH3)]	5.6	20.2	2.9
